Source: patent US12276665B2, “Methods for screening and identifying agents that inhibit or modulate the nuclear egress complex of herpesviruses” (priority 2018, dated 2025)
Non-standard residues stand in square brackets, D forms with d. Residues, ends and D or L forms follow the SMILES beside them. *: point of attachment. Biotin = O=C1N[C@H]2[C@H](CS[C@H]2CCCCC(=O)*)N1; AEEA = NCCOCCOCC(=O)O

Legend:
MCMV pM53 = assay: coimmunoprecipitation (CoIP), proteins from transient transfection; format: binding; conditions: 293T cells
Description: (§1) Two or three dpt cells were harvested.

VZV Orf27 = target: T1, VZV Orf27 (Varicella-zoster virus, UniProt P09283); assay: as above; format: binding; conditions: 293T cells
T1 construct: expressed in transfected cells; host or cells: 293T
Description: as §1

EBV BFLF2 = target: T2, EBV BFLF2 (Epstein-Barr virus, UniProt P0CK47); assay: as above; format: binding; conditions: 293T cells
T2 construct: expressed in transfected cells; host or cells: 293T
T2 sequence (P0CK47 whole entry, looked up): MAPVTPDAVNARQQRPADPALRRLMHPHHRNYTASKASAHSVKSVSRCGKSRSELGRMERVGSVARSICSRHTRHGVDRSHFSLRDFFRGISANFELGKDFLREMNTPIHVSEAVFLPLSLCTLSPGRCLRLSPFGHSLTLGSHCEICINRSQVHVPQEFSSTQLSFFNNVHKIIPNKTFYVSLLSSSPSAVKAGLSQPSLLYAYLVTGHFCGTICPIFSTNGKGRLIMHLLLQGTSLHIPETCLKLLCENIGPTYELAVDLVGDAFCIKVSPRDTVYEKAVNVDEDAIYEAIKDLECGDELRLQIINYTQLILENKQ
Description: as §1

pUL53 = pUL53 (Human cytomegalovirus, UniProt P16794); conditions: ratio of EC50 values
Protocol: Plates were washed four times with 0.01% Tween 20 in 0.1 M phosphate buffer pH 7.2 (300 μL/well) after each incubation step. […] All data points present means of duplicates.

HCMV pUL53 = HCMV pUL53 (Human cytomegalovirus, UniProt P16794); conditions: 293T cells, transient transfection
Protocol: CoIP analyses were performed to investigate specific protein-protein interactions (Bannister and Kouzarides, 1996). To this end, 293T cells (5×10^6) were transfected with the plasmids coding for the proteins of interest. One day before CoIP, 50 mg/ml protein A sepharose or 25 μl of dynabeads Protein A were incubated with the appropriate antibody in 500 μl CoIP buffer at 4° C. overnight. Two or three dpt cells were harvested. Lysis was performed using 500 μl CoIP buffer containing protease inhibitors and PMSF on ice for 20 min, sonificated (20 impulses, 80%) and centrifuged (14000 rpm, 10 min, 4° C.). For expression controls 50 μl aliquots of each supernatant were taken and boiled in 50 μl 2× boiling mix for 10 min at 95° C. The antibody-loaded dynabeads or sepharose beads (washed three times with CoIP buffer) were incubated with the lysates for 1.5 h at 4° C. Thereafter, samples were washed with CoIP buffer five times, resuspended in 30 μl 2× boiling mix and boiled 10 min at 95° C. Separation and analyzation of protein complexes were performed using SDS-PAGE and Wb.
Protein samples obtained from CoIP or cell lysates were separated by SDS-PAGE and transferred to a nitrocellulose membrane by electroblotting (200-300 mA for 80 min). […] Finally, the membranes were washed again three times with PBSo over 30 min, shortly incubated within a freshly prepared ECL solution (10 ml ECL solution A, 100 μl ECL solution B and 3.1 μl H2O2) and the proteins were detected by the use of the FUJIFILM Luminescent Image Analyzer LAS-1000 (FUJIFILM Europe GmbH, Düsseldorf, Germany). […]
At three dpt, cells were lysed and HA-tagged proteins were precipitated using pAb-HA or a rabbit antibody Fc fragment as specificity control. […] Lysate controls taken prior to the IP and CoIP samples were subjected to standard Wb analysis and protein expression was analyzed using tag- or protein-specific antibodies.

[1] = target: pUL50-pUL53 interaction (HCMV NEC) (Human cytomegalovirus, UniProt P16791); assay: competitive binding assay
Protocol: These experiments were designed to address the peptide-protein interactions for each virus, as well as the ability of the hook peptides and proteins to cross-interact with the groove proteins of the respective other virus.
After blocking with BSA plates were incubated with 50 μL/well of inhibitor solutions at different concentration ranges, and 50 μL/well of His-tagged pUL50 (0.16 μg/mL) and BFRF1 (5 μg/mL), respectively. His-tagged pUL50 and BFRF1 were detected and plates developed as described above. IC50-values were determined using the regression wizard of GraphPad Prism. All data points present means of duplicates. Inhibition was calculated according to the following formula: % Inhibition=[1−(Apeptide−Ablank1)/(A100%−Ablank2)]×100, in which “100%” is a sample without inhibitor, “blank1” is a sample without coated hook protein and “blank2” is a sample without coated hook protein and without inhibitor.

pUL50: HCMV groove protein of the core NEC; His-tagged in ELISA, HA-tagged in CoIP
CoIP interaction with MCMVpM53 (MCMV pM53): +
CoIP interaction with VZV Orf27 (VZV Orf27): −
CoIP interaction with EBV BFLF2 (EBV BFLF2): −
fold stronger interaction than the BFRF1-BFLF2 interaction of EBV (pUL53): approximately 20 fold
CoIP interaction with HCMV pUL53 (HCMV pUL53): +

CC[C@H](C)[C@H](NC(=O)CNC(=O)[C@H](CCCNC(=N)N)NC(=O)[C@H](Cc1ccccc1)NC(=O)[C@H](Cc1ccccc1)NC(=O)[C@H](CC(=O)O)NC(=O)[C@H](CCCNC(=N)N)NC(=O)[C@H](CC(C)C)NC(=O)[C@H](CO)NC(=O)[C@H](Cc1ccccc1)NC(=O)[C@H](Cc1c[nH]cn1)NC(=O)[C@H](CO)NC(C)=O)C(=O)N[C@@H](CO)C(=O)N[C@@H](C)C(=O)N[C@@H](CC(N)=O)C(=O)N[C@@H](Cc1ccccc1)C(=O)N[C@@H](CCC(=O)O)C(=O)N[C@@H](CC(C)C)C(=O)NCC(=O)N[C@@H](CCCCN)C(=O)N[C@@H](CC(=O)O)C(=O)N[C@@H](Cc1ccccc1)C(=O)N[C@@H](CC(C)C)C(=O)N[C@@H](CCCNC(=N)N)C(=O)N[C@@H](CCC(=O)O)C(=O)N[C@@H](CCSC)C(=O)N[C@@H](CC(N)=O)C(=O)N[C@H](C(=O)N1CCC[C@H]1C(=O)NCCOCCOCC(=O)N[C@@H](CCCCNC(=O)CCCC[C@@H]1SC[C@@H]2NC(=O)N[C@@H]21)C(N)=O)[C@@H](C)O [EBV hook peptide] (Ac-SHFSLRDFFRGISANFELGKDFLREMNTP[AEEA]K(Biotin)-NH2)
IC50 [1]: 2.6 µM
fold lower inhibitory activity than the HCMV counterpart (hook protein or hook peptide) ([1]; ratio of IC50 values): approximately 22 fold

CC[C@H](C)[C@H](NC(=O)[C@H](C)NC(=O)[C@H](CCSC)NC(=O)[C@H](CCCCN)NC(=O)[C@H](CCSC)NC(=O)[C@H](CCSC)NC(=O)[C@H](CC(N)=O)NC(=O)[C@H](CC(C)C)NC(=O)[C@H](Cc1ccc(O)cc1)NC(=O)[C@H](CCCCN)NC(=O)[C@H](CC(C)C)NC(=O)[C@H](CCC(=O)O)NC(=O)[C@H](CC(C)C)NC(=O)[C@H](CCC(=O)O)NC(=O)[C@@H]1CCCN1C(=O)[C@H](Cc1c[nH]cn1)NC(=O)[C@H](CCC(=O)O)NC(=O)[C@H](CCCNC(=N)N)NC(=O)[C@H](Cc1ccccc1)NC(=O)[C@@H](NC(=O)[C@H](CC(=O)O)NC(=O)[C@H](Cc1c[nH]cn1)NC(=O)[C@H](CC(C)C)NC(=O)[C@H](CC(=O)O)NC(=O)[C@H](Cc1c[nH]cn1)NC(=O)[C@H](CC(C)C)NC(=O)[C@@H](NC(=O)[C@H](CC(C)C)NC(C)=O)[C@@H](C)O)[C@@H](C)CC)C(=O)N[C@H](C(=O)NCCOCCOCC(=O)N[C@@H](CCCCNC(=O)CCCC[C@@H]1SC[C@@H]2NC(=O)N[C@@H]21)C(N)=O)[C@@H](C)O [HCMV hook peptide]
IC50 [1]: 0.114 µM

B1: BFRF1: EBV groove protein of the core NEC; His-tagged in ELISA, HA-tagged in CoIP (protein)
chain: MASPEERLLDELNNVIVSFLCDSGSLEVERCSGAHVFSRGSSQPLCTVKLRHGQIYHLEFVYKFLAFKLKNCNYPSSPVFVISNNGLATTLRCFLHEPSGLRSGQSGPCLGLSTDVDLPKNSIIMLGQDDFIKFKSPLVFPAELDLLKSMVVCRAYITEHRTTMQFLVFQAANAQKASRVMDMISDMSQQLSRSGQVEDTGARVTGGGGPRPGVTHSGCLGDSHVRGRGGWDLDNFSEAETEDEASYAPWRDKDSWSESEAAPWKKELVRHPIRRHRTRETRRMRGSHSRVEHVPPETRETVVGGAWRYSWRATPYLARVLAVTAVALLLMFLRWT
modifications: Human herpesvirus 4
notes: EBV groove protein of the core NEC; His-tagged in ELISA, HA-tagged in CoIP
CoIP interaction with EBV BFLF2 (EBV BFLF2): +
CoIP interaction with HCMV pUL53 (HCMV pUL53): −

B2: MCMV pM50: MCMV core NEC protein, HA-tagged, transiently expressed (protein)
chain: MEIDKNVGADLISNTRRILRLDENELRITDTALICKNPNYSLCDAMLTTDIVYPVEYLLSYWECRSGRTACFVFKNTGCRVSLSCYIGFPERLKDLKRVCDFNFLSVNEALVVTLADIERIKPCDKGVLTNCVVRKSNSGMSYNIEVVAFGPDNEAEYQALLRDIYARRMTSVPTDCGSLICRRARCLAAAPPRRPPPPPPPGQRWGSLRKHGPVLTRRYAGGGGAAKNQPAAASPTSTSTSSPAAPSRDQDQTQRPPPAGDTNVTAAETTYSERTISFLTRHANAIHCALILAAAIALVLLWLLYWHAARSAGHP
modifications: Mouse cytomegalovirus 1
notes: MCMV core NEC protein, HA-tagged, transiently expressed
CoIP interaction with MCMVpM53 (MCMV pM53): +
CoIP interaction with EBV BFLF2 (EBV BFLF2): −
CoIP interaction with HCMV pUL53 (HCMV pUL53): +
